Consider one molecule from patent publication US20200239555A1 (STATEN BIOTECHNOLOGY B V, published 2020).

The target in assay [1] is T1, biotinylated native human ApoC3 (human, UniProt P02656 21-99, biotinylated (site not stated)).
T1 construct: also called biotinylated human ApoC3
The assay can be described thus: SPR, IgG1 over biotinylated ApoC3 on SA chip, pH 7.4; pH 7.4. As for the experimental part:
Biotinylated native human ApoC3 was captured on a streptavidin coated SPR chip (GE Healthcare, cat. nr. BR100032) at pH 7.4, in accordance with the method provided by Biacore, by injection of 20 μl 10 μg/ml biotinylated native human ApoC3 reaching the surface density of approximately 500 RU. 60 μL of test antibody in 1-50 nM range diluted in HBS-EP buffer (GE, cat # BR-1008-26; 0.010 M HEPES, 0.150M NaCl, 3 mM EDTA, 0.05% (v/v) surfactant P20, pH 7.4) was injected and passed through the flow cells at a flow rate of 30 μl/min, followed by an off-rate wash at pH7.4 for 5 min. After the dissociation, the flow cell surfaces were regenerated by injecting 10 μl of 10 mM NaOH/1 M NaCl and 10 μl of 10 mM glycine at pH1.5. The assay was repeated at pH5.5 using the same general protocol, where the running and sample dilution buffer was replaced by a HBS-EP buffer supplemented with citrate buffer to 10 mM final concentration and pH adjusted to 5.5.
The resulting sensorgrams were analyzed using the BIAevaluation 4.1 software using Langmuir 1:1 binding model to derive binding kinetics. Data was zero adjusted and the reference cell sensorgrams were subtracted. Sensorgrams were double referenced to no-analyte blank assay. Fitted parameters were considered not applicable if off-rate values were below the equipment's detection limit of kd: 1×10⁻⁶ 1/s.
(In general: SPR reads the build-up and loss of mass on a sensor chip optically.)

The target of assay [2] is T1, biotinylated native human ApoC3. The assay can be described thus: SPR, IgG1 over biotinylated ApoC3 on SA chip, pH 5.5. Put shortly: (§1)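 Biotinylated native human ApoC3 was captured on a streptavidin chip (~500 RU), and IgG1 at 1-50 nM was injected in HBS-EP at pH 7.4, or at pH 5.5 with 10 mM citrate added. Dissociation was followed for 5 min. Double-referenced sensorgrams were fit to a 1:1 Langmuir model, and fits were considered not applicable when kd was below 1×10⁻⁶ 1/s.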

Assay [3] has the same target. The assay can be described thus: SPR, IgG1 over biotinylated ApoC3 on SA chip, pH 7.4. Summed up:
as §1

Assay [4] deals with T2, native human ApoC3 (human, UniProt P02656 21-99).
T2 construct: also called nhuApoC3; native huApoC3
T2 sequence (P02656 21-99): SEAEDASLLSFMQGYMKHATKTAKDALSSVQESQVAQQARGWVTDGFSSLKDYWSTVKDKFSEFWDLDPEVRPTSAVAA
The assay can be described thus: SPR, IgG1 over ApoC3 on CM5 chip, pH 7.4. How it is done: (§2) Based on the results in Example 1, test scFv-Fc antibodies were generated as human IgG₁ antibodies. An SPR-based assay was employed, in which human ApoC3 protein was immobilized on a CM5 chip, and the binding kinetics of test antibodies to the coated chip were measured at both pH 7.4 and pH 5.5. Briefly, a solution of 50 μg/ml of native human ApoC3 in 10 mM acetate buffer at pH 4.5 was prepared and injected until the surface density reached approximately 500 RU. 60 μl of each test antibody was diluted in HBS-EP buffer (GE, cat. nr. BR-1008-26; 0.010 M HEPES, 0.150M NaCl, 3 mM EDTA, 0.05% (v/v) surfactant P20, pH 7.4), and was injected at a concentration as described in Table 9. The test antibodies were passed through the flow cells at a flow rate of 30 μl/min, followed by an off-rate wash at pH 7.4 or pH 5.5 for 5 min. The resulting sensorgrams were analyzed using the BIAevaluation 4.1 software applying the Langmuir 1:1 binding model to derive binding kinetics. Data was zero adjusted and the reference cell sensorgrams were subtracted.

The target of assay [5] is T1, biotinylated native human ApoC3. Briefly: SPR, IgG1 over biotinylated ApoC3 on SA chip. Put shortly: as §1
For assay [6], the target named is T2, native human ApoC3. The assay can be described thus: SPR, IgG1 over ApoC3 on CM5 chip, pH 5.5. As for the experimental part:
as §2

“And” between values parts separate entries of the source, which are not always exact repeats. Equal values may be shown once.

T1 sequence (P02656 21-99): as above

B1: 5E5VH12_VLWT human IgG1 (antibody, V domains shown)
VH: QLQLVESGGGLVQPGGSLRLSCAASGFTFGTYSMRWVRQVPRKALEWVSSISTDGGGTAYRDSVKGRFTISRDNAKNTLYLQMNNLKPEDTAIYYCVIHGYSDWGQGTQVTVSS
VL: ATMLTQSPGSLSVVPGESASISCKTSQGLVHSDGKTYFYWFLQKPGQSPQQLIYQVSNRASGVPDRFTGSGSGTDFTLKISGVKAEDAGVYYCAQGTYYPHTFGSGTRLEIK
A word on the Kd: it is the free concentration of one partner at which half of the binding sites on the other are occupied at equilibrium, for simple one-to-one binding. A high value points to a looser complex. As usually defined, the koff is the first-order rate constant of dissociation. A lower koff goes with slow dissociation. Broadly, the kon is the rate constant with which the complex forms. On to B1, for which the results for the Ka in assay [1] and in assay [2] were 5.84e+10 M⁻¹ and 2.12e+09 M⁻¹, respectively. For the same molecule, the equilibrium dissociation constant (Kd) was 0.472 nM and 0.47 nM in assay [2]; 0.0171 nM and 0.02 nM in assay [3]. In addition, the koff amounted to 0.000143 s⁻¹ in assay [2], 1.12e-05 s⁻¹ in assay [3], 1.38e-05 s⁻¹ in assay [4] and 0.000374 s⁻¹ in assay [6]. Also, the kon was 302000 M⁻¹ s⁻¹ in assay [2], 656000 M⁻¹ s⁻¹ in assay [3], 393000 M⁻¹ s⁻¹ in assay [4] and 366000 M⁻¹ s⁻¹ in assay [6]. In assay [5], the “KD pH5.5/KD pH7.4” value stood at 27.6.
